# T1: human LAMA4 G domain (LG1-5) displayed on 293 cells (human, UniProt Q16363 830-1821)
# T1 construct: the vector's tags and membrane anchor are not written here; also called LAMA4-displaying human 293 cells; full length
# T1 sequence: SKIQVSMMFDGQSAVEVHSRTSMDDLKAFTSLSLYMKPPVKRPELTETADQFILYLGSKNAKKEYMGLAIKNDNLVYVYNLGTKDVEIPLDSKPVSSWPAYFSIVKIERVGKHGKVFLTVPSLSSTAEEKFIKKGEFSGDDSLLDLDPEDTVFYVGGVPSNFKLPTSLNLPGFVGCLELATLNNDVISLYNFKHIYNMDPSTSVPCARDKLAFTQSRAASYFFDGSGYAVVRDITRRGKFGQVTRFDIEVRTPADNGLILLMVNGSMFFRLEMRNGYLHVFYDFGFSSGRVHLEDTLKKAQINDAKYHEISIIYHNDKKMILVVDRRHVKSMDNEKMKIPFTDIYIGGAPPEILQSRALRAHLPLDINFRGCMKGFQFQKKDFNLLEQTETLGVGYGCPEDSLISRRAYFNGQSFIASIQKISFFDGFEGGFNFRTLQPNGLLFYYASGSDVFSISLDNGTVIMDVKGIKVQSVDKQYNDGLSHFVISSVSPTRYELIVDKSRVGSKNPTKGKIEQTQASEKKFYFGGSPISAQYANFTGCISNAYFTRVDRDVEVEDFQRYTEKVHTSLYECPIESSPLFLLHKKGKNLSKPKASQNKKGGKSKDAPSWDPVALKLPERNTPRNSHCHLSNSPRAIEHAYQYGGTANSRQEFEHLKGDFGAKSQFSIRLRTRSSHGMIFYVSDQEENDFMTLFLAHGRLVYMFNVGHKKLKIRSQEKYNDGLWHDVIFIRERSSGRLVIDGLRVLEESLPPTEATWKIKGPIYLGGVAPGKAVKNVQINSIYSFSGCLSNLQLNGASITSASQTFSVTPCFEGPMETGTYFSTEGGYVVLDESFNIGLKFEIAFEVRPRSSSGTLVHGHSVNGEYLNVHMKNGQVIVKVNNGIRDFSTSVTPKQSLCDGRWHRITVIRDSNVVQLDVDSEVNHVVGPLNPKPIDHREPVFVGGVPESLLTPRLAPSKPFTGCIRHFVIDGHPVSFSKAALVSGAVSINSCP
# T2: human LAMA4 LG4-5 modules displayed on 293 cells (human, UniProt Q16363 1453-1821)
# T2 construct: pDisplay construct on 293 cells; vector tags and anchor not written here
# T2 sequence: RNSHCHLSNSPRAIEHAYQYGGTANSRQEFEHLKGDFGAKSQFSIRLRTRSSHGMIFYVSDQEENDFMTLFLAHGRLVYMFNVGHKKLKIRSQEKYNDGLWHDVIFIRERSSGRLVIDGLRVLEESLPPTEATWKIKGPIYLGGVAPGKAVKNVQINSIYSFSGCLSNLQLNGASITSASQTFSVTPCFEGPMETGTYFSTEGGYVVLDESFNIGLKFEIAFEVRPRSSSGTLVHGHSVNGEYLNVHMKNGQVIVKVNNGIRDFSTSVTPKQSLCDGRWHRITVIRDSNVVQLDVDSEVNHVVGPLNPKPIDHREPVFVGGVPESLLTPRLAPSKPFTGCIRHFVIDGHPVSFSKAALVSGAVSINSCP
# T3: LGde2, human LAMA4 G domain with LG2 deleted, displayed on 293 cells (human, UniProt Q16363 830-1821, limits assumed)
# T3 construct: pDisplay construct on 293 cells; vector tags and anchor not written here; also called LGde2 (LG13)
# T3 sequence: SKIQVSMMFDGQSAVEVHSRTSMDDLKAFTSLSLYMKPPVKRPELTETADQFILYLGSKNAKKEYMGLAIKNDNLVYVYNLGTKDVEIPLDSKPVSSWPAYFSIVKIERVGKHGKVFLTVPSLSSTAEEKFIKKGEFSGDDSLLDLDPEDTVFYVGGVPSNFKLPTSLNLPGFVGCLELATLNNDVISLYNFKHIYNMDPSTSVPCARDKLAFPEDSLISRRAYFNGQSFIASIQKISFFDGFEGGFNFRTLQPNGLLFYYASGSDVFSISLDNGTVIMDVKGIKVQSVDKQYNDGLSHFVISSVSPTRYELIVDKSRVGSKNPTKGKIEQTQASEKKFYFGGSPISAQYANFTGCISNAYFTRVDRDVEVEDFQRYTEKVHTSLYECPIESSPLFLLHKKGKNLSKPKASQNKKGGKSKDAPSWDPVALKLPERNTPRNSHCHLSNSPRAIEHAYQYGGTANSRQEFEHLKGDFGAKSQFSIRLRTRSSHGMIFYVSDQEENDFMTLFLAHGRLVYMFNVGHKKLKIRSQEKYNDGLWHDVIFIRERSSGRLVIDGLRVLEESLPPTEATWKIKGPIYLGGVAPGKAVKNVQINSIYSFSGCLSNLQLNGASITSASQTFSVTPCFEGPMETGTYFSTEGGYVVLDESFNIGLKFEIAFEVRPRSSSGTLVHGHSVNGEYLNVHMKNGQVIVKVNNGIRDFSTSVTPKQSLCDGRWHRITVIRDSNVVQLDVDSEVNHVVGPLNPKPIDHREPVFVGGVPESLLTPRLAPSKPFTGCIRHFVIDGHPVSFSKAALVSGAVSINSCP
# Assays:
# recombinant laminin 411 = recombinant laminin 411 (human, UniProt P07942 22-1786; P11047 34-1609, limits assumed); test: cell-based or functional assay
# Chain of recombinant laminin 411 (chain, as listed by the source limits assumed, chain 1 of 3): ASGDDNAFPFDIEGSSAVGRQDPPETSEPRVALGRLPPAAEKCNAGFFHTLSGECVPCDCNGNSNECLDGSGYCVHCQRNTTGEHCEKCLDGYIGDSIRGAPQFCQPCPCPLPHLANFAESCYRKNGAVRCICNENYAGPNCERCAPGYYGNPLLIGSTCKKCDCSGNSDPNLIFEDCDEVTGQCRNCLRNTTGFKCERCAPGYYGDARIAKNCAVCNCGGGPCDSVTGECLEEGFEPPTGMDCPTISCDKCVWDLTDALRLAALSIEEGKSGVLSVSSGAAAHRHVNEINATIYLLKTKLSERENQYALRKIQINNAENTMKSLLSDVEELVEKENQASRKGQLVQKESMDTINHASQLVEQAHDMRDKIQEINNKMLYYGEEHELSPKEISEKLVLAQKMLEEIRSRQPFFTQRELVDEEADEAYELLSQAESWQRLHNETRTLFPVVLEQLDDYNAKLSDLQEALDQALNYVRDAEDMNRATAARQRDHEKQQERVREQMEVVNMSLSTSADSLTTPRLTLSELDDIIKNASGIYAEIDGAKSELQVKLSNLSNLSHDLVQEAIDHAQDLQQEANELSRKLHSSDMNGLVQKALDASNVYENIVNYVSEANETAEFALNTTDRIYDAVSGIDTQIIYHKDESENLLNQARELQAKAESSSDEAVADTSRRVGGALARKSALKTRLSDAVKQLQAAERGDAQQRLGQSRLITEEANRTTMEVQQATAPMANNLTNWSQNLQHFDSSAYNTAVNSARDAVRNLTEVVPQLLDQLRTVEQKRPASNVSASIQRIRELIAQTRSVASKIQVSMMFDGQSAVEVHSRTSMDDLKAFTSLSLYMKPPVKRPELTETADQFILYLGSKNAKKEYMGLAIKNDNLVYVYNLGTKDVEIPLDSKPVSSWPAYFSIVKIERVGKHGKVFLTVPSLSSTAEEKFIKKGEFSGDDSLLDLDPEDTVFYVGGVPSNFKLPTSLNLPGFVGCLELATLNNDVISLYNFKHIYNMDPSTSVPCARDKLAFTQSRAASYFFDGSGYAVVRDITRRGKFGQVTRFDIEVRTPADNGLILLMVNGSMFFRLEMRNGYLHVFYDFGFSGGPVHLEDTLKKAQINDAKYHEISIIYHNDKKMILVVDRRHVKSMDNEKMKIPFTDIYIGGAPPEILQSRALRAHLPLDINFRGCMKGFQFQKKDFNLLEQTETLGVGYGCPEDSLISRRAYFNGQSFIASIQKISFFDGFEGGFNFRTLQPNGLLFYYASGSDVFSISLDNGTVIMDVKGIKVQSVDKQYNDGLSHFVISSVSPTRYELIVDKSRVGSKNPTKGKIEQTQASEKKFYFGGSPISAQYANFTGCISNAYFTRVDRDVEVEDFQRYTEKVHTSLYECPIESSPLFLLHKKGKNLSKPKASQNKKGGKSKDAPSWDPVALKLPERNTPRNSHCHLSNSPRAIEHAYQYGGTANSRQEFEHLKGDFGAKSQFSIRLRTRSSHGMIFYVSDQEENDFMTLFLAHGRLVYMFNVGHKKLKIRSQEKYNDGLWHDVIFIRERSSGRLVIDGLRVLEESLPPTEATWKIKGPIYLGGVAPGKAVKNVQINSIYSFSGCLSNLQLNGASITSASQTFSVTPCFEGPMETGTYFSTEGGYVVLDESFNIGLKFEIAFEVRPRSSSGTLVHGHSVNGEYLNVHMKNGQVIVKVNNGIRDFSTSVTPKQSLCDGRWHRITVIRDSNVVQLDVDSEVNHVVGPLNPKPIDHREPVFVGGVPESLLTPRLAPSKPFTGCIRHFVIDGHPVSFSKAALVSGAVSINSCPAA
# Chain of recombinant laminin 411 (P07942 22-1786 limits assumed, chain 2 of 3): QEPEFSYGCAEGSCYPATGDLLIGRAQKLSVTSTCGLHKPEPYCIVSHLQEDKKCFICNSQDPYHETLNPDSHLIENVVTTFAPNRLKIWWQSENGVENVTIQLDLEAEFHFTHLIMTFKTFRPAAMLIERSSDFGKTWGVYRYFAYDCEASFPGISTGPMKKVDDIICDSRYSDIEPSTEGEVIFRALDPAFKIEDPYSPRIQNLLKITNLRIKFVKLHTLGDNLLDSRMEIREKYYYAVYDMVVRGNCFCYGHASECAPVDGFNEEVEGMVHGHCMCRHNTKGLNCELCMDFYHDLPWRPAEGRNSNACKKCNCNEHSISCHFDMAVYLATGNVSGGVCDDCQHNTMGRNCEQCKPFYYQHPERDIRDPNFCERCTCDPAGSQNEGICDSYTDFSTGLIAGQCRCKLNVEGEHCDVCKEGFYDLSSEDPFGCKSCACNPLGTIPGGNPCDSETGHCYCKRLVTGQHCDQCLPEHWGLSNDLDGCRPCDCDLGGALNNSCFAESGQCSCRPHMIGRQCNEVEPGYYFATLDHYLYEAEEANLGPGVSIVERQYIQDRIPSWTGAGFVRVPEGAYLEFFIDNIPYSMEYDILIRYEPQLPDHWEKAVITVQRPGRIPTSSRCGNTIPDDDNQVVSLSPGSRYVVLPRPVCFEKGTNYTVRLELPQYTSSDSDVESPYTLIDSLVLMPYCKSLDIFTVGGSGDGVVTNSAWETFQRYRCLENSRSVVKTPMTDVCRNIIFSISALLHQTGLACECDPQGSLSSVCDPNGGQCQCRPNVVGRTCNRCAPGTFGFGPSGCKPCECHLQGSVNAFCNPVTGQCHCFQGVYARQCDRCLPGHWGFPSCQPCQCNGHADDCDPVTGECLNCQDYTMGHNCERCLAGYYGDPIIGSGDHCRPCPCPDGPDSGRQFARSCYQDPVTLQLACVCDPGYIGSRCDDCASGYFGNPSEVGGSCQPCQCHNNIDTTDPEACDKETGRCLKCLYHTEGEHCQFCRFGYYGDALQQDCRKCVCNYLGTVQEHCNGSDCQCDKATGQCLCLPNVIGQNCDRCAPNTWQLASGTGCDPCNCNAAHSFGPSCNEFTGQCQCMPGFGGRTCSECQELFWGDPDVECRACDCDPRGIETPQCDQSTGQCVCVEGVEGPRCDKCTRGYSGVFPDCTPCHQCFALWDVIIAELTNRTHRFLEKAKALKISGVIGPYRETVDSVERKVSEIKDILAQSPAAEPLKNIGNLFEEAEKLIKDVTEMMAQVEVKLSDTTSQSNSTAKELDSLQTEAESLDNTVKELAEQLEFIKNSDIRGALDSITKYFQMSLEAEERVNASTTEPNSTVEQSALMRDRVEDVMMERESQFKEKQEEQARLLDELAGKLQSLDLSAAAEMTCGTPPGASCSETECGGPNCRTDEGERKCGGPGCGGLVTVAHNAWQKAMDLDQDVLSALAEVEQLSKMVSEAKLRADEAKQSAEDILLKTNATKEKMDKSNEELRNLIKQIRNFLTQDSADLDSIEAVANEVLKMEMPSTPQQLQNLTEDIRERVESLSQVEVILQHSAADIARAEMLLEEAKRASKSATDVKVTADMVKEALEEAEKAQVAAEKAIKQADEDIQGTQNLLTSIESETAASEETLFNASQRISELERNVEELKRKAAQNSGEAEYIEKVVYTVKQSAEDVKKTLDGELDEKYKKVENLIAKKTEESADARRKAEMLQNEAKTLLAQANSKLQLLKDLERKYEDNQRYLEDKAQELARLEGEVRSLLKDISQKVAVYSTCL
# Chain of recombinant laminin 411 (P11047 34-1609 limits assumed, chain 3 of 3): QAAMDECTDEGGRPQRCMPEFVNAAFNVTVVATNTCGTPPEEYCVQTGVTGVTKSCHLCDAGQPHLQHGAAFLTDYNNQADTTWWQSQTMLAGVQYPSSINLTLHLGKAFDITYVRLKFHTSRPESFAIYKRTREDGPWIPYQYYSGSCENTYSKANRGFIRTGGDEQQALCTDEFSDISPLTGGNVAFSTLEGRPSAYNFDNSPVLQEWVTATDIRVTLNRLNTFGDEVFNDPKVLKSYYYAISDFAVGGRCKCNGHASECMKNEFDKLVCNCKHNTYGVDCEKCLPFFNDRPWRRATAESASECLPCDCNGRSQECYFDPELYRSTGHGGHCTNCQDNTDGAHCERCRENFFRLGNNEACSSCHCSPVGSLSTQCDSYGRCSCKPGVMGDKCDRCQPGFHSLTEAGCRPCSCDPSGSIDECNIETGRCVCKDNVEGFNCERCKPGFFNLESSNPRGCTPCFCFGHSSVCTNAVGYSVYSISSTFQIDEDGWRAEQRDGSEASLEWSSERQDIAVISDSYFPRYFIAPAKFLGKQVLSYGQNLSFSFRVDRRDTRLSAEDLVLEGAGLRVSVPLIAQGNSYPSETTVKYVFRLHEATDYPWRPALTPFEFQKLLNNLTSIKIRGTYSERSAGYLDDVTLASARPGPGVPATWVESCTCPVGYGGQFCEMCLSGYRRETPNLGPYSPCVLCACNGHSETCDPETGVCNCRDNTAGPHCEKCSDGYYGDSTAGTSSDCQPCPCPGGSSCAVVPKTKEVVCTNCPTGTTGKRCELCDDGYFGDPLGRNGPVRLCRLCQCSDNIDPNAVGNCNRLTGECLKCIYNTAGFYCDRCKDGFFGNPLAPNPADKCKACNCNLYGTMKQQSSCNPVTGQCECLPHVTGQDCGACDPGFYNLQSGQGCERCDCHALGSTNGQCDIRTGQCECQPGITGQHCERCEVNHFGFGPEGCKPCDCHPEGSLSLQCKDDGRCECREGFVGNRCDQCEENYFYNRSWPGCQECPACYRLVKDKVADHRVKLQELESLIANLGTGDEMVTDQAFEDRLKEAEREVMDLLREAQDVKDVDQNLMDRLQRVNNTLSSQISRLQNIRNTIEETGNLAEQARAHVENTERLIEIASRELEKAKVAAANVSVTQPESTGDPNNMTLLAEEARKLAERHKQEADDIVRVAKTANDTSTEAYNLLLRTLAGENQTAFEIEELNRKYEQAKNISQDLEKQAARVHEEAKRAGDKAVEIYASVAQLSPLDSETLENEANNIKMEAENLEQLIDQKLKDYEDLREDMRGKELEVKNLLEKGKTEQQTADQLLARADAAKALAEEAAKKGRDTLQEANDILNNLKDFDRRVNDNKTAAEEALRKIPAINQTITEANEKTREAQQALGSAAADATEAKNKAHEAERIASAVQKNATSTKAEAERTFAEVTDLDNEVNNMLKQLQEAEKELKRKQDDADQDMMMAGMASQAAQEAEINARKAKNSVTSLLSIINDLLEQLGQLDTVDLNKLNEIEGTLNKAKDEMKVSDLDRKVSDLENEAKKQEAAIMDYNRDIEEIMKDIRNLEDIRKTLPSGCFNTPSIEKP
# [1] = molecular target: T1, human LAMA4 G domain (LG1-5) displayed …; test: LAMA4 pDisplay flow cytometric blocking assay on LAMA4-displaying 293 cells; blocked ligand: 650-conjugated mouse MCAM-Fc
# [2] = molecular target: T2, human LAMA4 LG4-5 modules displayed on …; test: flow cytometry on 293 cells displaying LAMA4 G-domain variants; % binding
# Description: (§1) LGde1 has a full-length G domain (i.e., LG1-5) with LG1 deleted, LGde2 has a full-length G domain with LG2 deleted, and LGde3 has a full-length G domain with LG3 deleted. Recombinant MCAM-Fc protein was able to specifically bind 293 cells expressing LAMA4 variants LG1-5, LG1-3, and LGde 1 (LG23), but not 293 cells expressing LAMA 4 variants LG4-5, LGde2 (LG13), or LGde3 (LG12).
# [3] = molecular target: T3, LGde2, human LAMA4 G domain with LG2 …; test: flow cytometry, 650-labeled MCAM-Fc on 293 cells displaying the variant
# Description: as §1
Binder,"laminin-411-induced pAkt activation (pAkt/Akt ratio by immunoblot) in WM266.4 cells, 20 ug/ml antibody (recombinant laminin 411)",IC50 (read off the curve) [1],binding result [2],binding result [3]
"mouse monoclonal antibody 19C12 (antibody, V domains shown, Mouse hybridoma antibody; Mouse IgG2b was used as its isotype control; also called m19C12) VH: QVQLQQSGAELVKPGASVKISCKASGYAFSTYWMNWVKQRPGEGLEWIGQIYPGDGDTNYNGKFKGKATLTADKSSSTAYMQLSSLTSEDSAVYFCARSDGYYDYWGQGTTLTVSS VL: NIVLTQSPASLAVSLGQRATISCRASESVDSYGTSFMHWYQQKPGQPPKLLICLASSLESGVPARFSGSGSRTDFTLTIDPVEADDAATYYCQQNNEDPPTFGAGTKLELKR",~50 % inhibition,~0.03 µg/mL,no binding,–
"mouse MCAM-Fc fusion protein (Fc fusion, UniProt Q8R2Y2 24-563, looked up, extracellular domain; Made in house; also called mMCAM-Fc; 650-conjugated mouse MCAM-Fc; not shown: human IgG1 (Fc part of the fusion)) VPGEEKQPVPTPDLVEAEVGSTALLKCGPSRASGNFSQVDWFLIHKERQILIFRVHQGKGQREPGEYEHRLSLQDSVATLALSHVTPHDERMFLCKSKRPRLQDHYVELQVFKAPEEPTIQANVVGIHVDRQELREVATCVGRNGYPIPQVLWYKNSLPLQEEENRVHIQSSQIVESSGLYTLKSVLSARLVKEDKDAQFYCELSYRLPSGNHMKESKEVTVPVFYPAEKVWVEVEPVGLLKEGDHVTIRCLTDGNPQPHFTINKKDPSTGEMEEESTDENGLLSLEPAEKHHSGLYQCQSLDLETTITLSSDPLELLVNYVSDVQVNPTAPEVQEGESLTLTCEAESNQDLEFEWLRDKTGQLLGKGPVLQLNNVRREAGGRYLCMASVPRVPGLNRTQLVSVGIFGSPWMALKERKVWVQENAVLNLSCEASGHPQPTISWNVNGSATEWNPDPQTVVSTLNVLVTPELLETGAECTASNSLGSNTTTIVLKLVTLTTLIPDSSQTTGLSTLTVSPHTRANSTSTEKKLPQPESKGVV",–,–,–,no binding

# Reference: patent US20170158755A1 (PROTHENA BIOSCIENCES, published 2017)
